This is an account of results in publication PMC10220053, “Molecular basis for Eaf3-mediated assembly of Rpd3S and NuA4” (Cell Discovery, 2023).

The Kd is the free concentration of one partner at which half of the binding sites on the other are occupied at equilibrium, for simple one-to-one binding. A lower Kd goes with a tighter complex.

B2: Rco1^PHD1–SID (aa 240–376) (domain or fragment, S. cerevisiae, UniProt Q04779 240-376, looked up)
chain: SNASEKIFRDKNNSTIDFENEDFCSACNQSGSFLCCDTCPKSFHFLCLDPPIDPNNLPKGDWHCNECKFKIFINNSMATLKKIESNFIKQNNNVKIFAKLLFNIDSHNPKQFQLPNYIKETFPAVKTGSRGQYSDEN
notes: also called Rco1^SID1–PHD

The target of test [1] is T1, C-terminal MRG domain of Eaf3 (Eaf3^MRG, aa 218–401) (S. cerevisiae, UniProt Q12432 218-401).
T1 construct: Eaf3, S. cerevisiae, C-terminal MRG domain, aa 218–401
T1 sequence (looked up): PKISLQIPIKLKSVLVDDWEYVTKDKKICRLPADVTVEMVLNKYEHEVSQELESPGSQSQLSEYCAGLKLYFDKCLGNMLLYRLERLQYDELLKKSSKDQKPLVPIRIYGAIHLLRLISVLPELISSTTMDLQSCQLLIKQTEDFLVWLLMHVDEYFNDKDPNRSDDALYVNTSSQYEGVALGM
Description: ITC; SUMO–Eaf7^108–143 or SUMO alone with Eaf3^MRG or the Eaf3^MRG–Rco1^PHD1–SID complex. Conditions: both partners purified. (ITC needs no label: the signal is the heat of the interaction.)

Test [2] addresses B2. As to the kind of experiment: crystal structure; Eaf3^MRG–Rco1^PHD1–SID–H3K4me0^1–12 ternary complex, 1.60 Å. Conditions: both partners purified.
Another test deals with T2, Rco1^PHD1 alone (S. cerevisiae, Zn2+-bound PHD finger. Limits for PHD1 alone are not given; taken from the SID-deleted truncation Rco1 240-313 in the text, which covers PHD1 (zinc finger 260-309)).
T2 chain: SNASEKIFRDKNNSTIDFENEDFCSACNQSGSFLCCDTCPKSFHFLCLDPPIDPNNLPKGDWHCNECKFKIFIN
As to the kind of experiment: ITC; H3 1–12 peptides with the Eaf3^MRG–Rco1^PHD1–SID complex or with Rco1^PHD1 alone. Conditions: both partners purified.

The target of test [3] is T1, C-terminal MRG domain of Eaf3 …. Description: pull-down; GST pull-down / affinity pull-down of Eaf3^MRG (wild type and mutants) with Rco1^PHD1–SID (wild type, mutants, truncation); which partner carried GST is not told.

In turn, EETLLELNNRIRVRKQDFTLPWEEYGELILENARKS (domain or fragment, S. cerevisiae, UniProt P53911 108-143, looked up) [SUMO–Eaf7^108–143] had a Kd in test [1] of 1 µM.

B1: H3K4me0^1–12 peptide (peptide, UniProt P61830 2-13, looked up)
peptide: ARTKQTARKSTG
notes: Histone H3, residues 1–12, Lys4 unmodified; also called H3K4me0 peptide; unmodified H3K4
Turning to B1, the binding result in test [2] is recorded as “binds”. In the test with Rco1^PHD1 alone, this molecule came in with a Kd of 110 µM. As for B2, the binding result in test [3] is on record as “binds”.
